According to IntAct's records for PubMed 20473270:

B1: Zinc finger HIT domain-containing protein 1 (Homo sapiens), O43257 (parent)
chain: MVEKKTSVRSQDPGQRRVLDRAARQRRINRQLEALENDNFQDDPHAGLPQLGKRLPQFDDDADTGKKKKKTRGDHFKLRFRKNFQALLEEQNLSVAEGPNYLTACAGPPSRPQRPFCAVCGFPSPYTCVSCGARYCTVRCLGTHQETRCLKWTV

Variants of: B1
Conditions: with arp6_human ACTR6, Q9GZN1
arp6_human ACTR6, Q9GZN1, sequence (Q9GZN1 whole entry): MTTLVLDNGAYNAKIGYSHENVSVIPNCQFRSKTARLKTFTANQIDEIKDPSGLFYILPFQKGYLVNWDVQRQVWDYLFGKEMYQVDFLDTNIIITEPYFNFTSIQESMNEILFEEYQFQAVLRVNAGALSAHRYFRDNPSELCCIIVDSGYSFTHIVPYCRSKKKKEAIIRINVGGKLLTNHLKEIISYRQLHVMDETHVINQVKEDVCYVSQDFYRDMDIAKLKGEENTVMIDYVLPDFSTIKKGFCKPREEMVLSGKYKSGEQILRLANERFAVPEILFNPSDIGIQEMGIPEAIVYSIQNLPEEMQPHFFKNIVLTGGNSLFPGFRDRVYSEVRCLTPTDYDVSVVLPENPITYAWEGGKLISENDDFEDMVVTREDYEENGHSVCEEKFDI

Effect of a mutation on the interaction, disrupting interaction:
MVEKKASVRSQDPGQRRVLDRAARQRRINRQLEALENDNFQDDPHAGLPQLGKRLPQFDDDADTGKKKKKTRGDHFKLRFRKNFQALLEEQNLSVAEGPNYLTACAGPPSRPQRPFCAVCGFPSPYTCVSCGARYCTVRCLGTHQETRCLKWTV [T6A]
MVEKKTSVRSQDPGQRRVLDRAARQRRINRQLEALENDNFQDDPHAGLPQLGKRLPQFDDDADTGKKKKKTRGDHFKLRFRKNFQALLEEQNLSVAEGPNYLAACAGPPSRPQRPFCAVCGFPSPYTCVSCGARYCTVRCLGTHQETRCLKWTV [T103A]
MVEKKTSVRSQDPGQRRVLDRAARQRRINRQLEALENDNFQDDPHAGLPQLGKRLPQFDDDADTGKKKKKARGDHFKLRFRKNFQALLEEQNLSVAEGPNYLTACAGPPSRPQRPFCAVCGFPSPYTCVSCGARYCTVRCLGTHQETRCLKWTV [T71A]
MVEKKTSVRSQDPGQRRVLDRAARQRRINRQLEALENDNFQDDPHAGLPQLGKRLPQFDDDADAGKKKKKTRGDHFKLRFRKNFQALLEEQNLSVAEGPNYLTACAGPPSRPQRPFCAVCGFPSPYTCVSCGARYCTVRCLGTHQETRCLKWTV [T64A]
